Assay [1] addresses Vtc4* (Vtc4(1–487), SPX and TTM domains of Vtc4 without the transmembrane domain) (S. cerevisiae) (UniProt P47075). The assay is described as follows: MST. The settings on record: domain or fragment.
Assay [2] shares this target. The assay is described as follows: MST; as a1, MST buffer supplemented with 2.5 mM IP6.
The target is the same in assay [3]. The assay is described as follows: MST; as a1, MST buffer supplemented with 2.5 mM natural 5-IP7.
The target is the same in assay [4]. The assay is described as follows: MST; as a1, MST buffer supplemented with 2.5 mM 1,5-IP8.

Usually Kd stands for the constant that tells how readily two partners part at equilibrium.

Chain of Vtc4* (Vtc4(1–487), SPX and TTM domains of Vtc4 without the transmembrane domain) (S. cerevisiae) (P47075 1-487): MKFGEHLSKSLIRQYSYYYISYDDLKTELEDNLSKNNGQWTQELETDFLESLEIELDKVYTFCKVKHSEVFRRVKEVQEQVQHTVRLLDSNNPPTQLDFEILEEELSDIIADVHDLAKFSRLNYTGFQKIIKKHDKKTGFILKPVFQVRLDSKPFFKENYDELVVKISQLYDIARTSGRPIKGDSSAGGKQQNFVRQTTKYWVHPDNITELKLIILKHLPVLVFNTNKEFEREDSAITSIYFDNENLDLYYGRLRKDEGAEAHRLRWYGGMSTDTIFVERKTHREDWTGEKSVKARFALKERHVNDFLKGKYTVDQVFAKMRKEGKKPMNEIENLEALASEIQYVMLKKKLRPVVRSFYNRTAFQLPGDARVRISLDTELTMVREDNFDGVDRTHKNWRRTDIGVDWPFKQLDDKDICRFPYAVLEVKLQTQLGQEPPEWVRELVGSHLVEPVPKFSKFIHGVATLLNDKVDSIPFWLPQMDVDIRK
Chain of SPX2∆α1 (SPX2 with helix α1 truncated) (P43585 1-151): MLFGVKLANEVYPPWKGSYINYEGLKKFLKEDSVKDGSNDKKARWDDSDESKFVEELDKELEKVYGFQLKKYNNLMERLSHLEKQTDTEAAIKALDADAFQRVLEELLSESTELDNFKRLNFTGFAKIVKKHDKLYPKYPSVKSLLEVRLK

As for SPX2∆α1 (SPX2 with helix α1 truncated), the Kd in assay [1] is 1000 µM.

Regarding “SPX2 (SPX domain of Vtc2, Vtc2(1–201)) (from UniProt P43585 1-201) (domain or fragment)”, in assay [2], the fold decrease of affinity with 2.5 mM IP6 against no ligand is over 20 fold. This substance came in with a fold decrease of affinity with 2.5 mM 5-IP7 against no ligand in assay [3] of 85 fold. The substance also had a fold decrease of affinity with 2.5 mM 1,5-IP8 against no ligand in assay [4] of over 100000 fold.

(Values after publication PMC10167327.)
